Measurements published in paper PMC8229176.
pEC50: −log10 of the molar value.

Biological target: ACE2 on ACE2-transfected HEK293 cells (UniProt Q9BYF1)
Assay: flow cytometry on cells

Chain of UniProt Q9BYF1 (Q9BYF1 18-805): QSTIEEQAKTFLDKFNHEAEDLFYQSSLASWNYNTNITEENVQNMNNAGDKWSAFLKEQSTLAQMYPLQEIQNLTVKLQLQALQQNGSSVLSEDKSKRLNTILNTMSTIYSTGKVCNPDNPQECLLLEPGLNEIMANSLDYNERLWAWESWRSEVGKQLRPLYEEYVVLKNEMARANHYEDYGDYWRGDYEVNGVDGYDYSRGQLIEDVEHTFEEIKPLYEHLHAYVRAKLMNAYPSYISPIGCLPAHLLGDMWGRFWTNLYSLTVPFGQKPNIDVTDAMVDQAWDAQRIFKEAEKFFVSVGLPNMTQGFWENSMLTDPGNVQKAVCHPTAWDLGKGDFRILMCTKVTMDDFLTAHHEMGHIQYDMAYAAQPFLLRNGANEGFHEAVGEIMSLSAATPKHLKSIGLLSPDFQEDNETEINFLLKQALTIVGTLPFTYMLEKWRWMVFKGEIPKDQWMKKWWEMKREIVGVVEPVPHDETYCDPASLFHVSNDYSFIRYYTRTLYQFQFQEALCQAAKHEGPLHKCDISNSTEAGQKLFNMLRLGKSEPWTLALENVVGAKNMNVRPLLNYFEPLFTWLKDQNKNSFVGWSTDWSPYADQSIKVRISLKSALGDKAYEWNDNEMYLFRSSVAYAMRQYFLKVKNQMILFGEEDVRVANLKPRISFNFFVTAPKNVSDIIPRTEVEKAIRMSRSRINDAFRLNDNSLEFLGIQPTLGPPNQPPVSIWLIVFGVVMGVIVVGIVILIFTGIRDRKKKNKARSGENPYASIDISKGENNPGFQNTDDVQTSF

**Q.** “SARS-CoV-2 spike protein receptor-binding domain (RBD), His6-tagged (domain or fragment)” was tested. Which pEC50 did it give?
**A.** 7.31
